Assay results from US11214614B2, “LTBP complex-specific inhibitors of TGFβ and uses thereof” (Scholar Rock, Inc., priority 2019, dated 2022).

Test system: male C57BL/6J mice on CDHFD (liver fibrosis)
Experiment: Choline-deficient high fat diet (CDHFD) model of mouse NASH, liver hydroxyproline content
Type: in vivo
Conditions: 15 mg/kg twice a week i.p., weeks 4 through 12 of CDHFD
From the text: The Choline deficient high fat diet (CDHFD) is an established diet-induced model of Non-Alcoholic steatohepatitis (NASH). In this model, male C57BL/6J mice are fed a choline deficient, 0.10% Methionine, high fat diet for 12 weeks. Three to six weeks after the start of the CDHFD, activation of pro-fibrotic processes can be detected through increased expression of α-smooth muscle actin (α-SMA) protein, a marker for activation of hepatic stellate cells, and elevated tissue hydroxyproline content reflecting increased collagen synthesis and deposition (Matsumoto et. al, Int J Exp Pathol. 2013 April; 94(2):93-103).
LTBP complex-specific antibodies were tested for their ability to inhibit and/or reduce the extent of liver fibrosis in mice in the CDHFD model as follows. An outline of the study is shown below in Table 21.
Animals in the test cohorts were on the CDHFD for the duration of the study. A separate cohort of mice (Group 1) were administered a regular chow diet as a study control. Antibodies SR-AB42 and SR-AB31 were administered to mice by intraperitoneal (i.p.) injection beginning at 4 weeks post start of the CDHFD. Animals were dosed at antibody test concentrations 15 mg/kg twice a week (i.e., 30 mg/kg/week) for a test duration of 8 weeks (i.e., weeks 4 through 12). […] Endpoint readout was hydroxyproline content. […]

B1: SR-AB42: cycle 3 antibody, lineage SR-AB23; CDRs SEQ ID NO: 166-171; HCVR SEQ ID NO: 318, LCVR SEQ ID NO: 319 (antibody, V domains shown)
VH: QVQLVESGGGVVQPGRSLRLSCAASGFTFRSYVMHWVRQAPGKGLEWVAVISHEGSLKYYADSVKGRFTISRDNSKNTLYLQMNSLRAEDTAVYYCARPRIAARRGGFGYWGQGTLVTVSS
VL: NFMLTQPHSVSESPGKTVTISCTRSSGNIDNNYVQWYQQRPGSSPTTVIYEDNQRPSGVPDRFSGSIDSSSNSASLTISGLKTEDEADYYCQSYDYDTQGVVFGGGTKLTVL
Hydroxyproline (HYP) in liver tissue: inhibited the increase in HYP
